# Laboratory results from paper PMC5004176, “The antifungal plant defensin AtPDF2.3 from Arabidopsis thaliana blocks potassium channels” (Scientific Reports, 2016).
# Read-outs that look alike come from different tables or passages of the source. Ends that are not written are not given here.
# Legend:
# [1] = target: voltage-gated potassium channel rKv1.6 (rat (from the prefix in rKv1.6)) (UniProt P17659)
# [2] = target: voltage-gated potassium channel rKv1.2 (rat (from the prefix in rKv1.2)) (UniProt P63142)
# [3] = system: Kv1.6 channels; assay: Two-electrode voltage-clamp on Kv1.6 expressed in X. laevis oocytes; details: for IC50: read-out: IC50 for Kv1.6, two-electrode voltage-clamp, X. laevis oocytes, concentration-response curve fitted with Hill equation, mean ± standard error, n ≥ 3
# Procedure: (§1) For the expression of the voltage-gated potassium channels (rKv1.1, rKv1.2, hKv1.3, rKv1.4, rKv1.5, rKv1.6, Shaker IR, hKv3.1, rKv4.3, and hERG) in Xenopus laevis oocytes, the linearized plasmids were transcribed using the T7 or SP6 mMESSAGE-mMACHINE transcription kit (Ambion). The harvesting of stage V–VI oocytes from an anaesthetized female X. laevis frog was previously described[59]. Oocytes were injected with 50 nL of cRNA at a concentration of 1 ng/nL using a micro-injector (Drummond Scientific, USA). The oocytes were incubated in a solution containing (in mM): NaCl, 96; KCl, 2; CaCl2, 1.8; MgCl2, 2 and HEPES, 5 (pH 7.4), supplemented with 50 mg/L gentamycin sulfate.
# (§2) Two-electrode voltage-clamp recordings were performed at room temperature (18–22 °C) using a Geneclamp 500 amplifier (Molecular Devices, USA) controlled by a pClamp data acquisition system (Axon Instruments, USA). Whole cell currents from oocytes were recorded 1–4 days after injection. Bath solution composition was ND96 (in mM): NaCl, 96; KCl, 2; CaCl2, 1.8; MgCl2, 2 and HEPES, 5 (pH 7.4) or HK (in mM): NaCl, 2; KCl, 96; CaCl2, 1.8; MgCl2, 2 and HEPES, 5 (pH 7.4). Voltage and current electrodes were filled with 3 M KCl. Resistances of both electrodes were kept between 0.7 and 1.5 MΩ. The elicited currents were filtered at 0.5 kHz and sampled at 2 kHz (for potassium currents) or filtered at 2 kHz and sampled at 20 kHz (for sodium currents) using a four-pole low-pass Bessel filter. Leak subtraction was performed using a -P/4 protocol. Kv1.1–Kv1.6 and Shaker currents were evoked by 250 ms depolarizations to 0 mV followed by a 250 ms pulse to −50 mV, from a holding potential of −90 mV. Current traces of hERG channels were elicited by applying a +40 mV prepulse for 2 s followed by a step to −120 mV for 2 s. […] In order to investigate the current–voltage relationship, current traces were evoked by 10 mV depolarization steps from a holding potential of −90 mV. To assess the concentration dependency of the toxin induced inhibitory effects, a concentration–response curve was constructed, in which the percentage of current inhibition was plotted as a function of toxin concentration. Data were fitted with the Hill equation: y = 100/[1 + (IC50/[toxin])^h], were y is the amplitude of the toxin-induced effect, IC50 is the toxin concentration at half-maximal efficacy, [toxin] is the toxin concentration, and h is the Hill coefficient. GV curves were calculated from IV relationships as follows: gK = IK/(Em−EK) with EK = (RT/zF)ln[K #0]o/[K #0]i. In these equations gK represents the conductance, IK the potassium current, Em the membrane potential, EK the reversal potential, R the gas constant (8.31 J/K mol), T the temperature, z the charge of the ion (for K+ ions: z = 1), F the Faraday’s constant (96.500 C/mol), [K #0]o and [K #0]i respectively are the extracellular and intracellular K+ ion concentrations. The values of IK or gK were plotted as function of voltage and fitted using the Boltzmann equation: gK/gmax = [1 + exp(Vg−V)/k]−1, were gmax represents maximal gK, Vg is the voltage corresponding to half-maximal conductance, and k is the slope factor. Comparison of two sample means was made using a paired Student’s t test (P < 0.05). All data represent at least three independent experiments (n ≥ 3) and are presented as mean ± standard error.
# [4] = system: Kv1.2 channels; assay: Two-electrode voltage-clamp on Kv1.2 expressed in X. laevis oocytes; details: for IC50: read-out: IC50 for Kv1.2, two-electrode voltage-clamp, X. laevis oocytes, concentration-response curve fitted with Hill equation, mean ± standard error, n ≥ 3
# Procedure: as §1, §2
# [5] = target: voltage-gated potassium channel rKv1.6 (rat (from the prefix in rKv1.6)) (UniProt P17659); remark: listed apart in the source
# [6] = target: voltage-gated potassium channel rKv1.2 (rat (from the prefix in rKv1.2)) (UniProt P63142); remark: listed apart in the source
# Sequence of voltage-gated potassium channel rKv1.6 (rat (from the prefix in rKv1.6)) (P17659 whole entry): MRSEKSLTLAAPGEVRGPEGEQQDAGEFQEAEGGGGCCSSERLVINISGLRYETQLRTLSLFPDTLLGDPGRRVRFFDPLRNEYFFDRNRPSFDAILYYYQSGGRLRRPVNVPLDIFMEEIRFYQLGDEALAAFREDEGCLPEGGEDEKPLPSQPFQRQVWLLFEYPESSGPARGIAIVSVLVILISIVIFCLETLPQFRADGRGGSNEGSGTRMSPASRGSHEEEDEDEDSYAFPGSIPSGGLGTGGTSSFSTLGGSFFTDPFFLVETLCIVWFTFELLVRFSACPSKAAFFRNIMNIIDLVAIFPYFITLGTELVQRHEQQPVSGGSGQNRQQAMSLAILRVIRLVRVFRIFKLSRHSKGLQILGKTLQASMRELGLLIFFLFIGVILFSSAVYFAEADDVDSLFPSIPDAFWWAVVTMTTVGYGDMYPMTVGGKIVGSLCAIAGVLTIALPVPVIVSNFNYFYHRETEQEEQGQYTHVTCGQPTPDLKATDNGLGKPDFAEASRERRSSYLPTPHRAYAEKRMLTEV
# Sequence of voltage-gated potassium channel rKv1.2 (rat (from the prefix in rKv1.2)) (P63142 whole entry): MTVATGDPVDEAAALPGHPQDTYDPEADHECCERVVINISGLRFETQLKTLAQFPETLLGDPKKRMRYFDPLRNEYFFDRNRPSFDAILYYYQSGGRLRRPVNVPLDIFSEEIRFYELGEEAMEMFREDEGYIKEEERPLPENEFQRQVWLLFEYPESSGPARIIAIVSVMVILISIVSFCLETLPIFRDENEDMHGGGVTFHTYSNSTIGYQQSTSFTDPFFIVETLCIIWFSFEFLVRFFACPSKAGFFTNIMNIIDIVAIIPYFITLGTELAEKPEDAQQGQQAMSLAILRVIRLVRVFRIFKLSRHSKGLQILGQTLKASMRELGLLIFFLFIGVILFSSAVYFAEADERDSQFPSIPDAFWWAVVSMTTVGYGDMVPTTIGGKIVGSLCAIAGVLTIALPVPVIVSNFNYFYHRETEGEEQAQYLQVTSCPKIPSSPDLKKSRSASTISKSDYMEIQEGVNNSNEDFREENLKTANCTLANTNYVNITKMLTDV
molecule,measurement,setting,value
recombinant Arabidopsis thaliana plant defensin AtPDF2.3 (from UniProt Q9ZUL7 31-77) (peptide),"IC50 of inhibition of Kv1.6 potassium current, two-electrode voltage clamp on X. laevis oocytes, concentration-response curve",[1],0.978 µM
same,"IC50 of inhibition of Kv1.2 potassium current, two-electrode voltage clamp on X. laevis oocytes, concentration-response curve",[2],1.3 µM
same,inhibition of the Kv1.2 potassium current by 2 μM rAtPDF2.3 in HK solution,[2],66%
same,inhibition of the Kv1.2 potassium current by 2 μM rAtPDF2.3 in ND96 solution (data not shown),[2],59%
rAtPDF2.3[G36N]: rAtPDF2.3 variant with both Lysine33 and Asparagine36 (KCXN toxin signature) (RTCESKSHRFKGPCVSTHNCANVCHNEGFGGGKCRNFRRRCYCTRHC; ends and bridges not checked; cysteine pairing not given here),fold decrease of Kv1.6 IC50 as compared to rAtPDF2.3,[3]; ratio of IC50 values,7.1 fold
same,IC50,[3],0.138 ± 0.038 µM
same,fold decrease of Kv1.2 IC50 as compared to rAtPDF2.3,[4]; ratio of IC50 values,2.1 fold
same,IC50,[4],0.611 ± 0.091 µM
"rAtPDF2.3[K33A]: rAtPDF2.3 variant with neither Lysine33 nor Asparagine36, devoid of the toxin signature (RTCESKSHRFKGPCVSTHNCANVCHNEGFGGGACRGFRRRCYCTRHC; ends and bridges not checked; cysteine pairing not given here)",IC50,[3],3.5 ± 0.235 µM
same,IC50,[4],2.04 ± 0.383 µM
AtPDF2.3 [K33A][G36N]: rAtPDF2.3 variant containing only Asparagine36 (CXN toxin signature) (RTCESKSHRFKGPCVSTHNCANVCHNEGFGGGACRNFRRRCYCTRHC; ends and bridges not checked; cysteine pairing not given here),IC50,[3],0.366 ± 0.114 µM
same,IC50,[4],1.38 ± 0.133 µM
RTCESKSHRFKGPCVSTHNCANVCHNEGFGGGACRGFRRRCYCTRHC (not fully specified; cysteine pairing not given here) [rAtPDF2.3[K33A]],"IC50 of inhibition of Kv1.6 potassium current, two-electrode voltage clamp on X. laevis oocytes, concentration-response curve",[5],3.5 µM
same,"IC50 of inhibition of Kv1.2 potassium current, two-electrode voltage clamp on X. laevis oocytes, concentration-response curve",[6],2.04 µM
RTCESKSHRFKGPCVSTHNCANVCHNEGFGGGKCRNFRRRCYCTRHC (not fully specified; cysteine pairing not given here) [rAtPDF2.3[G36N]],"IC50 of inhibition of Kv1.6 potassium current, two-electrode voltage clamp on X. laevis oocytes, concentration-response curve",[5],0.138 µM
same,"IC50 of inhibition of Kv1.2 potassium current, two-electrode voltage clamp on X. laevis oocytes, concentration-response curve",[6],0.611 µM
RTCESKSHRFKGPCVSTHNCANVCHNEGFGGGACRNFRRRCYCTRHC (not fully specified; cysteine pairing not given here) [rAtPDF2.3[K33A][G36N]],"IC50 of inhibition of Kv1.6 potassium current, two-electrode voltage clamp on X. laevis oocytes, concentration-response curve",[5],0.366 µM
same,"IC50 of inhibition of Kv1.2 potassium current, two-electrode voltage clamp on X. laevis oocytes, concentration-response curve",[6],1.38 µM
